The results in this text go back to patent publication US20120100160A1.

The target in this experiment is murine LFA-1 (on TK1/TK-1 cells or primary murine splenocytes) (murine) (UniProt P24063). As to the kind of experiment: cell-based or functional assay.
Chain of UniProt P24063 (P24063 24-1162, chain 1 of 2): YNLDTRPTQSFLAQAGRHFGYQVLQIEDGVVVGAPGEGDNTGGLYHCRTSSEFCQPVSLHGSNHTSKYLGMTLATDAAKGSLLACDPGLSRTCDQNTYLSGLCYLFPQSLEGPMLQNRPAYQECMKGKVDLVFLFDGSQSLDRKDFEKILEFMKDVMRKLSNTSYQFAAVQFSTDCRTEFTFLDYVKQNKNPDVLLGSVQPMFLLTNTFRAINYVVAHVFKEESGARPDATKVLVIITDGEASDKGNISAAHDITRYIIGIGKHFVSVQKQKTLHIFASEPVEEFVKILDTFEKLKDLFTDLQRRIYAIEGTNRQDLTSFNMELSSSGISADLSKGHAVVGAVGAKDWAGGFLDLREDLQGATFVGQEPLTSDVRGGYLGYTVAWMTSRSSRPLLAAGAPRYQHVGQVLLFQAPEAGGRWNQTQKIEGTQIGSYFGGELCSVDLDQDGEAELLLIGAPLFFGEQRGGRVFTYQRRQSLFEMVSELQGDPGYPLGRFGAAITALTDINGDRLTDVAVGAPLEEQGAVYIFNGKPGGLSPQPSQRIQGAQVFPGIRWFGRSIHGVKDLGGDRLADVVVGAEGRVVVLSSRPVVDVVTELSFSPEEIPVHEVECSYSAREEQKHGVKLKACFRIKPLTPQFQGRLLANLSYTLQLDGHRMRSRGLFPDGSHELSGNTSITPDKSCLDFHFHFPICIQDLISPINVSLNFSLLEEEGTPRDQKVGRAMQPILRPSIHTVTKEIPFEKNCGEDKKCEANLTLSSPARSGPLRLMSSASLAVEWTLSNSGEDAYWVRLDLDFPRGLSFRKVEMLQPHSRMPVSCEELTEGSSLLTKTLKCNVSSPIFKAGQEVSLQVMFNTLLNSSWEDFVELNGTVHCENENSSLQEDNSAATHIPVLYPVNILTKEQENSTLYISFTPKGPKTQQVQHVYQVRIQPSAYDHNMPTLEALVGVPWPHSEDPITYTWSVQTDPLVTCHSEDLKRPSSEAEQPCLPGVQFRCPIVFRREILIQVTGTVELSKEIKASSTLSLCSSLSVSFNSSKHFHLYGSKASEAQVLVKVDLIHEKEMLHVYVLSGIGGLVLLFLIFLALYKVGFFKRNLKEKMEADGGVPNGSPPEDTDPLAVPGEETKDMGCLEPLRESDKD
Chain of UniProt P24063 (P11835 24-771, chain 2 of 2, further chain): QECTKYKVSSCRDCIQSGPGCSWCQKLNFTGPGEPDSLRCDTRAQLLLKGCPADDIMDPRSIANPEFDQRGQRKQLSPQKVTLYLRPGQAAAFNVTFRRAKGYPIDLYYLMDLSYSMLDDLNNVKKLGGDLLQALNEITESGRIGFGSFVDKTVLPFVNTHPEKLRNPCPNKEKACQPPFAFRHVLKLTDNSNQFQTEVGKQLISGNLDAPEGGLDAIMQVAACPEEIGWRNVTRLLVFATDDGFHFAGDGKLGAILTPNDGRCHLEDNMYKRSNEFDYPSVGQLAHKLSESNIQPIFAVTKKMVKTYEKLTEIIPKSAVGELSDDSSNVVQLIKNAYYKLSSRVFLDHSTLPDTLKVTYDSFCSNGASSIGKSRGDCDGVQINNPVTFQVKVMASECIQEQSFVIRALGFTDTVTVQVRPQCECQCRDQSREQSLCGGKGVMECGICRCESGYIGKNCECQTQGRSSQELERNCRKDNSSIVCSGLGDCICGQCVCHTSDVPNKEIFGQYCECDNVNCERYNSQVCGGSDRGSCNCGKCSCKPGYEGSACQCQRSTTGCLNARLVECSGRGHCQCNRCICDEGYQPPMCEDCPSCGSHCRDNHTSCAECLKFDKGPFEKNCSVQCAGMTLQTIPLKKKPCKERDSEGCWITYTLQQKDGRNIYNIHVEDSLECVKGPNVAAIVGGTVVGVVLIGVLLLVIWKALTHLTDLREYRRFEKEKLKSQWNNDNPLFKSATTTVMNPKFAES

Regarding “multimerized ICAM-1-protamine fusion protein (80 pmoles fusion protein with 10 pmoles anti-Fc Fab′2)”, the CD45 knockdown in TK-1 cells: subpopulation of CD45-low cells at the 6:1 ratio of siRNA to fusion protein worked out at 14%.
